Read-outs that look alike come from different tables or passages of the source.
What was measured:
Msi1 RBD2 = Msi1 RBD2 (Mus musculus, UniProt Q61474 109-191); test: NMR HSQC titration
Msi1 RBD1 [1] = biological target: T1, Msi1 RBD1 (Mus musculus, UniProt Q61474 20-103); test: NMR HSQC titration
Msi1 RBD1 [2] = biological target: T1, Msi1 RBD1; test: NMR HSQC titration; remark: listed apart in the source
Msi1 RBD1-2 = Msi1 RBD1-2 (Mus musculus, UniProt Q61474 20-191); test: NMR HSQC titration
Msi1 RBD1 [3] = biological target: T1, Msi1 RBD1; test: competition

T1 sequence (Q61474 20-103): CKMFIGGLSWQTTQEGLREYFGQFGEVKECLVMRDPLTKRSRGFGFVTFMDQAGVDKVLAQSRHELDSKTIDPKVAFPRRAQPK
Sequence of Msi1 RBD2 (Q61474 109-191): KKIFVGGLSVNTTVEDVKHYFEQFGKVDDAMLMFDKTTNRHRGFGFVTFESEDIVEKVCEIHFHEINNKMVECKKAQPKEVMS
Sequence of Msi1 RBD1-2 (Q61474 20-191): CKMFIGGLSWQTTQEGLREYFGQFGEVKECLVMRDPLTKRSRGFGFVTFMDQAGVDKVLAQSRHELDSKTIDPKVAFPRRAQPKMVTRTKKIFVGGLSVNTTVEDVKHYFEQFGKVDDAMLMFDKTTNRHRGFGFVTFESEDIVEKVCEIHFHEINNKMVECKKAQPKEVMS

GGUAGU (ssRNA) [numb6-2]
binding result (Msi1 RBD2): binds
binding result (Msi1 RBD1 [1]): binds

GUAGU (ssRNA) [numb5]
binding result (Msi1 RBD1 [2]): binds

UAGGUA (ssRNA) [numb6-1]
binding result (Msi1 RBD2): binds

UAGGUAGUAGUUUUA (ssRNA) [numb15]
binding result (Msi1 RBD1-2): binds

GUAGUU (ssRNA) [numb6-4]
binding signal (Msi1 RBD1 [3]): ~1 ratio of complex signal to numb6-2 complex
